According to patent US20230406951A1 (Pfizer, published 2023):
Numbering of substitutions follows the chain as printed.

T1: human TNFR2 (human, UniProt P20333 23-461)
T1 construct: expressed on the surface of CHO cells; also called HuTNFR2; TNFRSF1B
T1 sequence: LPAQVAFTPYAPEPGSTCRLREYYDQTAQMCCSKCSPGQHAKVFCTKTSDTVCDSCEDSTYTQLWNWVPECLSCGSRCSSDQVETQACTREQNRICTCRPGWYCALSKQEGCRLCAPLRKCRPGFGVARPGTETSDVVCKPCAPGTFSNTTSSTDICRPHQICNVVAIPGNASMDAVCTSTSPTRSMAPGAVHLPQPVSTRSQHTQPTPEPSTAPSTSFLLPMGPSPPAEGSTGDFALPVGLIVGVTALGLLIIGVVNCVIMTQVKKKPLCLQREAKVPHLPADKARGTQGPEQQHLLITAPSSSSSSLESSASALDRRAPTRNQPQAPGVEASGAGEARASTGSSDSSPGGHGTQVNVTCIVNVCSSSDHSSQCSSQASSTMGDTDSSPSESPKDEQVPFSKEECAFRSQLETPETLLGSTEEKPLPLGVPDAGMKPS

B1: IgG 2041 (antibody, name in Kabat numbering, V domains shown)
VH: QVQLVQSGAEVKKPGASVKVSCKVSGFSFPSSGVDWVRQAPGQGLEWLGVTFQEGSTHYNQKFQGRVTITKDTSKSTVYMELSSLRSEDTAVYYCASGESTEGFVYWGQGTLVTVSS
VL: DIQLTQSPSFLSASVGDRVTITCKASQNVGTAVAWYQQKPGKAPKLLIYAASTLQSGVPSRFSGSGSGTEFTLTISSLQPEDFATYYCLQYSSYPLTFGGGTKVEIKR
notes: IgG
B2: IgG 2050 (antibody, name in Kabat numbering, V domains shown)
VH: B1 VH with F52H, Q53G, E54S, S100H, T101D
VL: B1 VL
notes: IgG
B3: IgG 2047 (antibody, name in Kabat numbering, V domains shown)
VH: B1 VH with F52L, Q53G, E54H, S100R, T101D
VL: B1 VL
notes: IgG
B4: IgG 2048 (antibody, name in Kabat numbering, V domains shown)
VH: B1 VH with F52L, Q53G, E54H, S100Q, T101D
VL: B1 VL
notes: IgG
B5: IgG 2052 (antibody, name in Kabat numbering, V domains shown)
VH: B1 VH with F52H, Q53G, E54S, S100Q, T101D
VL: B1 VL
notes: IgG
B6: IgG 2051 (antibody, name in Kabat numbering, V domains shown)
VH: B1 VH with F52H, Q53G, E54S, S100R, T101D
VL: B1 VL
notes: IgG
B7: IgG 2045 (antibody, name in Kabat numbering, V domains shown)
VH: B1 VH with F52L, Q53G, E54H
VL: B1 VL
notes: IgG
B8: IgG 2046 (antibody, name in Kabat numbering, V domains shown)
VH: B1 VH with F52L, Q53G, E54H, S100H, T101D
VL: B1 VL
notes: IgG
B9: IgG 2042 (antibody, name in Kabat numbering, V domains shown)
VH: B1 VH with S100H, T101D
VL: B1 VL
notes: IgG
B10: IgG 2044 (antibody, name in Kabat numbering, V domains shown)
VH: B1 VH with S100Q, T101D
VL: B1 VL
notes: IgG
B11: IgG 2043 (antibody, name in Kabat numbering, V domains shown)
VH: B1 VH with S100R, T101D
VL: B1 VL
notes: IgG
B12: TetraFab 2171 (antibody)
heavy: QVQLVQSGAEVKKPGASVKVSCKVSGFSFPSSGVDWVRQAPGQGLEWLGVTRGEGSTHYNQKFQGRVTITKDTSKSTVYMELSSLRSEDTAVYYCASGEWDEGFVYWGQGTLVTVSSASTKGPSVFPLAPSSKSTSGGTAALGCLVKDYFPEPVTVSWNSGALTSGVHTFPAVLQSSGLYSLSSVVTVPSSSLGTQTYICNVNHKPSNTKVDKKVEPKSCGGGGSQVQLVQSGAEVKKPGASVKVSCKVSGFSFPSSGVDWVRQAPGQGLEWLGVTRGEGSTHYNQKFQGRVTITKDTSKSTVYMELSSLRSEDTAVYYCASGEWDEGFVYWGQGTLVTVSSASTKGPSVFPLAPSSKSTSGGTAALGCLVKDYFPEPVTVSWNSGALTSGVHTFPAVLQSSGLYSLSSVVTVPSSSLGTQTYICNVNHKPSNTKVDKKVEPKSCDKTHTCPPCPAPEAAGAPSVFLFPPKPKDTLMISRTPEVTCVVVDVSHEDPEVKFNWYVDGVEVHNAKTKPREEQYNSTYRVVSVLTVLHQDWLNGKEYKCKVSNKALPAPIEKTISKAKGQPREPQVYTLPPSREEMTKNQVSLTCLVKGFYPSDIAVEWESNGQPENNYKTTPPVLDSDGSFFLYSKLTVDKSRWQQGNVFSCSVMHEALHNHYTQKSLSLSPGK
light: DIQLTQSPSFLSASVGDRVTITCKASQNVGTAVAWYQQKPGKAPKLLIYAASTLQSGVPSRFSGSGSGTEFTLTISSLQPEDFATYYCLQYSSYPLTFGGGTKVEIKRTVAAPSVFIFPPSDEQLKSGTASVVCLLNNFYPREAKVQWKVDNALQSGNSQESVTEQDSKDSTYSLSSTLTLSKADYEKHKVYACEVTHQGLSSPVTKSFNRGEC
notes: TetraFab
B13: TetraFab 2150 (antibody)
heavy: B12 heavy with R52K, E54Q, W100S, D101T, R277K, E279Q, W325S, D326T
light: B12 light with Y91K
notes: TetraFab
B14: TetraFab 2167 (antibody)
heavy: B12 heavy with R52H, E54S, W100H, R277H, E279S, W325H
light: B12 light with Y91K
notes: TetraFab
B15: TetraFab 2172 (antibody)
heavy: B12 heavy with R52F, G53Q, R277F, G278Q
light: B12 light
notes: TetraFab
B16: TetraFab 2153 (antibody)
heavy: B12 heavy with R52K, E54Q, W100Q, R277K, E279Q, W325Q
light: B12 light with Y91K
notes: TetraFab
B17: TetraFab 2057 (antibody)
heavy: B12 heavy with R52L, E54H, R277L, E279H
light: B12 light with L89Q
notes: TetraFab
B18: TetraFab 2075 (antibody)
heavy: B12 heavy with R52L, E54H, W100S, D101T, R277L, E279H, W325S, D326T
light: B12 light with L89Q
notes: TetraFab
B19: TetraFab 2063 (antibody)
heavy: B12 heavy with R52K, E54Q, W100S, D101T, R277K, E279Q, W325S, D326T
light: B12 light with L89Q
notes: TetraFab
B20: TetraFab 2147 (antibody)
heavy: B12 heavy with R52W, E54V, W100H, R277W, E279V, W325H
light: B12 light with Y91K
notes: TetraFab
B21: TetraFab 2069 (antibody)
heavy: B12 heavy with W100R, W325R
light: B12 light with L89Q
notes: TetraFab
B22: TetraFab 2079 (antibody)
heavy: B12 heavy with R52H, E54S, W100S, D101T, R277H, E279S, W325S, D326T
light: B12 light with L89Q
notes: TetraFab
B23: TetraFab 2059 (antibody)
heavy: B12 heavy with R52W, E54V, W100S, D101T, R277W, E279V, W325S, D326T
light: B12 light with L89Q
notes: TetraFab
B24: TetraFab 2054 (antibody)
heavy: B12 heavy with R52K, E54Q, R277K, E279Q
light: B12 light with L89Q
notes: TetraFab
B25: TetraFab 2055 (antibody)
heavy: B12 heavy
light: B12 light with L89Q
notes: TetraFab
B26: TetraFab 2060 (antibody)
heavy: B12 heavy with R52W, E54V, W100H, R277W, E279V, W325H
light: B12 light with L89Q
notes: TetraFab
B27: TetraFab 2142 (antibody)
heavy: B12 heavy
light: B12 light with Y91K
notes: TetraFab
B28: TetraFab 2162 (antibody)
heavy: B12 heavy with R52L, E54H, W100S, D101T, R277L, E279H, W325S, D326T
light: B12 light with Y91K
notes: TetraFab
B29: TetraFab 2156 (antibody)
heavy: B12 heavy with W100R, W325R
light: B12 light with Y91K
notes: TetraFab
B30: TetraFab 2154 (antibody)
heavy: B12 heavy with W100S, D101T, W325S, D326T
light: B12 light with Y91K
notes: TetraFab
B31: TetraFab 2066 (antibody)
heavy: B12 heavy with R52K, E54Q, W100Q, R277K, E279Q, W325Q
light: B12 light with L89Q
notes: TetraFab
B32: TetraFab 2143 (antibody)
heavy: B12 heavy with R52F, G53Q, R277F, G278Q
light: B12 light with Y91K
notes: TetraFab
B33: TetraFab 2058 (antibody)
heavy: B12 heavy with R52H, E54S, R277H, E279S
light: B12 light with L89Q
notes: TetraFab
B34: TetraFab 2056 (antibody)
heavy: B12 heavy with R52F, G53Q, R277F, G278Q
light: B12 light with L89Q
notes: TetraFab
B35: TetraFab 2163 (antibody)
heavy: B12 heavy with R52L, E54H, W100H, R277L, E279H, W325H
light: B12 light with Y91K
notes: TetraFab
B36: TetraFab 2076 (antibody)
heavy: B12 heavy with R52L, E54H, W100H, R277L, E279H, W325H
light: B12 light with L89Q
notes: TetraFab
B37: TetraFab 2065 (antibody)
heavy: B12 heavy with R52K, E54Q, W100R, R277K, E279Q, W325R
light: B12 light with L89Q
notes: TetraFab

The binders below were run against T1, human TNFR2 (assay: binding to human TNFR2 CHO cells).

Binding result, no binding:
B1
B2
B3
B4
B5
B6
B7
B8
B9
B10
B11
B12
B13
B14
B15
B16
B17
B18
B19
B20
B21
B22
B23
B24
B25
B26
B27
B28
B29
B30
B31
B32
B33
B34
B35
B36
B37
